Reference: patent publication US20070066551

Experiments:
[1] = biological target: IL-23 (full length) (Homo sapiens) (UniProt Q9NPF7+P29460); assay: filter; conditions: dRmY, DPBS with Ca/Mg, BSA, RT
[2] = tested on: IgE (Homo sapiens), P01854-1; assay: filter; conditions: DPBS with Ca/Mg, BSA
Sequence of IgE (Homo sapiens), P01854-1 (P01854 other isoform, or with tags, fused parts or gaps): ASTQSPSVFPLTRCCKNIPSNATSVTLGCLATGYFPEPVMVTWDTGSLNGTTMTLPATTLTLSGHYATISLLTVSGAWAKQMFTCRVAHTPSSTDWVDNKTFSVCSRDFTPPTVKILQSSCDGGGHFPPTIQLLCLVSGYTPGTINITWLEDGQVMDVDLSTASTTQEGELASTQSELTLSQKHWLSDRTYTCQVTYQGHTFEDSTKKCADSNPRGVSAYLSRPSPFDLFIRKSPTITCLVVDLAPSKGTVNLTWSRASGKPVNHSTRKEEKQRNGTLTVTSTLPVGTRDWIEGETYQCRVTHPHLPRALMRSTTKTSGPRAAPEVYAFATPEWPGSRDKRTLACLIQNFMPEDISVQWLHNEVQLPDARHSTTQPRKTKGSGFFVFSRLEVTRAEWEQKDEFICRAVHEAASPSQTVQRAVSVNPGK

Sequence of IL-23 (full length) (Homo sapiens) (Q9NPF7 20-189, chain 1 of 2): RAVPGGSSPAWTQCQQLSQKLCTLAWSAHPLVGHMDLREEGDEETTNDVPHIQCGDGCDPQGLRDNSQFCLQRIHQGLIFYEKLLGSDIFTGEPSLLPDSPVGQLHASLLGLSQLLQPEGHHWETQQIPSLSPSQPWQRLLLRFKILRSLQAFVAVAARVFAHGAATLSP
Sequence of IL-23 (full length) (Homo sapiens) (P29460 23-328, chain 2 of 2): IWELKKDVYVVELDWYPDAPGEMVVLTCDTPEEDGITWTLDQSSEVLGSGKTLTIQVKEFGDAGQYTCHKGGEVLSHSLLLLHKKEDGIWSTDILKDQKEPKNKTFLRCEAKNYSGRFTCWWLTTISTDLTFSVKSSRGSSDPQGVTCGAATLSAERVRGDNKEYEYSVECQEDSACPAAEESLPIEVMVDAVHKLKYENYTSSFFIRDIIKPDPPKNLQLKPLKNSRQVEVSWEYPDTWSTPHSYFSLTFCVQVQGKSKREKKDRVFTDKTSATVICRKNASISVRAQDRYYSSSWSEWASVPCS

Question: For “ACAGGCAAGUAANUGGGGAGUGCGGGCGGGGUGU [ARC1683]”, which Kd ([1]; 2'-OMe inosine for 2nd mU, 3'-idT (last t of SEQ), parent 9.8 nM) is on record?
Answer: 4.8 nM

Question: For “ACAGGCAAGUAAUUGGGGAGUGCGGGCGGGGUGN [ARC1702]”, which Kd ([1]; 2'-OMe inosine for last mU, 3'-idT (last t of SEQ), parent 15 nM) is on record?
Answer: 10 nM

Question: For “ACAGGCAAGUAAUUGGGGAGUGCGGGCGGGGUGU [ARC1648]”, which Kd ([1]; dI at 1st dA (position 1) [1], parent 13 nM) is on record?
Answer: 12 nM

Question: For “ACAGGCAAGUAAUUGGGGAGUGCGGGCGGGGUGU [ARC1650]”, which Kd ([1]; dI at 3rd dA (position 7) [7], parent 13 nM) is on record?
Answer: 34 nM

Question: Which Kd ([1]; dI at 6th dA (position 12) [12], parent 13 nM) does the source give for “ACAGGCAAGUAAUUGGGGAGUGCGGGCGGGGUGU [ARC1653]” here?
Answer: 25 nM

Question: Which Kd ([2]; 2'-deoxy purines, 2'-OMe pyrimidines (dRmY), RT, other runs 12.6 nM (Table 10), with ssDNA and tRNA 14.6 (Table 8), 20 (Table 12), 8.5, 27 and 13 (Table 13)) does the source give for AGCCUGGGGACCCAUGGGGGGCU [ARC445] here?
Answer: 3 nM

Question: For AGCCUGGGGACCCAUGGGGGGCU [ARC584], which Kd ([2]; dRmY, PS between 16 and 17, RT, parent 12.6 nM) is on record?
Answer: 6.9 nM

Question: AGCCUGGGGACCCAUGGGGGGCU [ARC588] was tested. Which Kd ([2]; dRmY, PS between 20 and 21, RT, parent 12.6 nM) did it give?
Answer: 5.3 nM

Question: AGCCUGGGGACCCAUGGGGGGCU [ARC597] was tested. Which Kd ([2]; dRmY, 2'-deoxy-5mC at 3, ssDNA, tRNA, parent 20 nM, other run 16 nM (Table 13, parent 8.5 nM)) did it give?
Answer: 21.5 nM

Question: For AGCCUGGGGACCCAUGGGGGGCU [ARC599], which Kd ([2]; dRmY, 2'-deoxy-5mC at 11, ssDNA, tRNA, parent 20 nM, other run 10.4 nM (Table 13, parent 8.5 nM)) is on record?
Answer: 20.5 nM

Question: Which Kd ([2]; dRmY, 2'-deoxy-5mC at 22, ssDNA, tRNA, parent 20 nM, other run 9 nM (Table 13, parent 8.5 nM)) does the source give for AGCCUGGGGACCCAUGGGGGGCU [ARC602] here?
Answer: 26 nM

Question: How did the Kd ([2]; dRmY, dC in place of sixth mC (position 22, per description; printed sequence shows mC), ssDNA, tRNA, RT, parent 14.6 nM) turn out when AGCCUGGGGACCCAUGGGGGGCU [ARC608] was run?
Answer: 7.9 nM

Question: AGCCUGGGGACCCAUGGGGGGCU [ARC702] was tested. Which Kd ([2]; dRmY, PS between 16 and 17, 20 and 21, RT, parent 12.6 nM) did it give?
Answer: 2.6 nM

Question: For AGCCUGGGGACCCAUGGGGGGCU [ARC751], which Kd ([2]; dRmY, 2'-deoxy-5mC at 3 and 22, ssDNA, tRNA, parent 20 nM) is on record?
Answer: 15 nM

Question: How did the Kd ([2]; dRmY, 2'-deoxy-5mC at 11 and 22, ssDNA, tRNA, parent 20 nM) turn out when AGCCUGGGGACCCAUGGGGGGCU [ARC753] was run?
Answer: 15 nM

Question: Which Kd ([2]; dRmY, 2'-deoxy-5mC at 3, 11 and 22, ssDNA, tRNA, parent 20 nM) does the source give for AGCCUGGGGACCCAUGGGGGGCU [ARC756] here?
Answer: 14 nM

Question: Which Kd ([2]; dRmY, PS between 12 and 13, 16 and 17, 20 and 21, RT, parent 12.6 nM) does the source give for AGCCUGGGGACCCAUGGGGGGCU [ARC767] here?
Answer: 2.7 nM

Question: AGCCUGGGGACCCAUGGGGGGCU [ARC768] was tested. Which Kd ([2]; dRmY, PS between 13 and 14, 16 and 17, 20 and 21, RT, parent 12.6 nM) did it give?
Answer: 3.5 nM

Question: Which Kd ([2]; dRmY, 2'-deoxy-5mC at 3, dC at 22, ssDNA, tRNA, parent 27 nM) does the source give for AGCCUGGGGACCCAUGGGGGGCU [ARC914] here?
Answer: 11.9 nM

Question: For AGCCUGGGGACCCAUGGGGGGCU [ARC915], which Kd ([2]; dRmY, 2'-deoxy-5mC at 11, dC at 22, ssDNA, tRNA, parent 27 nM) is on record?
Answer: 16.9 nM

Question: For AGCCUGGGGACCCAUGGGGGGCU [ARC916], which Kd ([2]; dRmY, 2'-deoxy-5mC at 3, dC at 12, ssDNA, tRNA, parent 27 nM) is on record?
Answer: 13.7 nM

Question: Which Kd ([2]; dRmY, 2'-deoxy-5mC at 22, dC at 12, ssDNA, tRNA, parent 27 nM) does the source give for AGCCUGGGGACCCAUGGGGGGCU [ARC918] here?
Answer: 14.6 nM

Question: For AGCCUGGGGACCCAUGGGGGGCU [ARC920], which Kd ([2]; dRmY, 2'-deoxy-5mC at 3 and 22, dC at 12, ssDNA, tRNA, parent 27 nM) is on record?
Answer: 12.8 nM

Question: Which Kd ([2]; dRmY, 2'-deoxy-5mC at 11 and 22, dC at 12, ssDNA, tRNA, parent 13 nM) does the source give for AGCCUGGGGACCCAUGGGGGGCU [ARC921] here?
Answer: 8.5 nM

Question: For AGCCUGGGGACCCAUGGGGGGCU [ARC925], which Kd ([2]; dRmY, 2'-deoxy-5mC at 3, dC at 12 and 22, ssDNA, tRNA, parent 13 nM) is on record?
Answer: 8.1 nM

Question: With AGCCUGGGGACCCAUGGGGGGCU [ARC926] as the sequence, how does the Kd ([2]; dRmY, 2'-deoxy-5mC at 11, dC at 12 and 22, ssDNA, tRNA, parent 13 nM) read?
Answer: 5.5 nM

Question: For AGCCUGGGGACCCAUGGGGGGCU [ARC1335], which Kd ([2]; ARC445 with 2'-OMe purines at 1, 2, 7, 10, 14, 17, other purines 2'-deoxy, 2'-OMe pyrimidines, 3'-idT (last t of SEQ), RT, other runs 15 nM (Table 9), 2.8 nM (Table 11)) is on record?
Answer: 0.3 nM

Question: How did the Kd ([2]; as ARC1335 with dI at 2, 3'-idT [dI at 2 (parent base G), other modifications as ARC1335, 3'-idT], RT) turn out when AGCCUGGGGACCCAUGGGGGGCU [ARC1548] was run?
Answer: 3.3 nM

Question: For AGCCUGGGGACCCAUGGGGGGCU [ARC1562], which Kd ([2]; as ARC1335 with dI at 16, 3'-idT [16], RT) is on record?
Answer: 0.6 nM

Question: Which Kd ([2]; as ARC1335 with dI at 17, 3'-idT [17], RT) does the source give for AGCCUGGGGACCCAUGGGGGGCU [ARC1563] here?
Answer: 2.2 nM

Question: With AGCCUGGGGACCCAUGGGGGGCU [ARC1564] as the sequence, how does the Kd ([2]; as ARC1335 with dI at 18, 3'-idT [18], RT) read?
Answer: 0.5 nM

Question: AGCCUGGGGACCCAUGGGGGGCU [ARC1565] was tested. Which Kd ([2]; as ARC1335 with dI at 19, 3'-idT [19], RT) did it give?
Answer: 1.4 nM

Question: Which Kd ([2]; as ARC1335 with dI at 20, 3'-idT [20], RT, other run 8 nM (Table 9, parent ARC1335 15 nM)) does the source give for AGCCUGGGGACCCAUGGGGGGCU [ARC1566] here?
Answer: 0.1 nM

Question: For AGCCUGGGGACCCNUGGGGGGCU [ARC1560], which Kd ([2]; as ARC1335 with dI at 14, 3'-idT, RT, parent ARC1335 15 nM) is on record?
Answer: 3 nM

Question: AGCCUGGGGACCCNUGGGGNGCU [ARC1647] was tested. Which Kd ([2]; as ARC1335 with dI at 14 and 20, 3'-idT, RT, parent ARC1335 15 nM) did it give?
Answer: 1 nM

Question: How did the Kd ([2]; as ARC1335 with 2'-OMe-2-aminopurine at 14, 3'-idT, RT, parent 2.8 nM) turn out when AGCCUGGGGACCCRUGGGGGGCU [ARC2047] was run?
Answer: 4.8 nM

Question: Which Kd ([2]; as ARC1335 with 2'-deoxy-2-aminopurine at 8, 3'-idT, RT, parent 2.8 nM) does the source give for AGCCUGGRGACCCAUGGGGGGCU [ARC2044] here?
Answer: 3.9 nM

Question: For AGCCUGGRGACCCRUGGGGGGCU [ARC2360], which Kd ([2]; as ARC1335 with 2'-deoxy-2-aminopurine at 8 and 2'-OMe-2-aminopurine at 14, 3'-idT, RT, parent 2.8 nM) is on record?
Answer: 2.7 nM

Question: With RGCCUGGGGACCCAUGGGGGGCU [ARC2040] as the sequence, how does the Kd ([2]; as ARC1335 with 2'-OMe-2-aminopurine at 1, 3'-idT, RT, parent 2.8 nM) read?
Answer: 18.7 nM

Question: How did the Kd ([2]; as ARC1335 with 2'-OMe-2-aminopurine at 1 and 14 and 2'-deoxy-2-aminopurine at 8, 3'-idT, RT, parent 2.8 nM) turn out when RGCCUGGRGACCCRUGGGGGGCU [ARC2361] was run?
Answer: 0.8 nM
